Source: article PMC9748336

Molecular target: HA-tagged PP2A catalytic Cα subunit p.Cys196Arg variant (human) (UniProt P67775)
Assay: co-IP; HA pull-down: lysates of HEK293T cells transfected with HA-Cα incubated 1 h at 4°C with anti-HA-agarose beads in NENT100 buffer with 1 mg/ml BSA; washes with 300 and 150 mM NaCl; endogenous A subunit detected by anti-A immunoblot, quantified against the anti-HA signal, WT set at 100%

endogenous PP2A A subunit (from UniProt P30153 1-589) (natural protein)
percent decrease of binding against Cα WT: 40%
